Assay [1] deals with T1, biotinylated EIIIB (protein fragment of fibronectin splice variant EIIIB) (Homo sapiens (sequence identical in …, UniProt P02751, strain, biotin (ChromaLink NHS-biotin reagent))).
Target sequence in this assay (P02751 1266-1356, stated change not applied): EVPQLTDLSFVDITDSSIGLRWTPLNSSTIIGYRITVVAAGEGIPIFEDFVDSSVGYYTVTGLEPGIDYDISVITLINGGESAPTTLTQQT
For assay [2], the target named is T1, biotinylated EIIIB (protein fragment of …). Put plainly: BLI; biotinylated EIIIB immobilised on streptavidin tips (2 μg/mL); nanobody or IL-2 fusion as analyte, 0.1 to 350 nM; PBS with 0.05% Tween-20 and 1% recombinant human albumin; 1:1 binding model, global fit, double referencing. The note with it: both partners purified.

Like-named read-outs stand apart in the source and are kept apart here.

B1: LMJ1.2G (VHH)
VHH: QVQLVETGGGLVQAGGSLRLSCAASGSTFSHSAGGWYRQAPEKQRELVAGIGSDGNINYADSVKDRFTISRDNASNTMYLQMNNLKPEDTAVYVCNIRGSYGNTYYSRWGQGTQVTVSS
For B1, in assay [1], the binding result is “binds”.

B2: LMJ2.5C (VHH)
VHH: QVQLVETGGGLVQAGGSLRLSCAASGSTFSHSAGGWYRQAPEKQRELVAGVRSDGNINYADSVKDRFTISRDNASNTMYLQMNNLKPEDTAVYVCNIRGSYGNTYYSRWGQGIQVTVSS
As for B2, in assay [1], the binding result was “binds”.

B3: LMJ2.5I nanobody, biotin-tagged (VHH)
VHH: RVQLVETGGGLVQAGGSLRLSCAVSGSTFSHSAGGWYRQAPEKQRELVAGIRSDGNINYADSVKDRFTISRDNASNTMYLQMNNLKPEDTAVYVCNIRGSYGNTYYSRWGQGAQVTVSS
notes: The text says the nanobodies for BLI were purified with C-terminal polyhistidine tags; source: E. coli WK6, periplasm, purified (Ni-NTA), then sortase-tagged with biotin; not shown: LPETG sortase motif, C-terminal, kept; His6, C-terminal, cleaved
In general, Kd refers to the free concentration of one partner at which half of the binding sites on the other are occupied at equilibrium, for simple one-to-one binding. As for B3, the Kd in assay [2] was 0.025 nM.

B4: NJB2-IL2 (NJB2 nanobody fused to murine IL-2) (VHH)
VHH: QVQLVETGGGLVQAGGSLRLSCAASGSTFSHNAGGWYRQAPEKQRELVAGISSDGNINYADSVKDRFTISRDNASNTMYLQMNNLKPEDTAVYVCNIRGSYGNTYYSRWGQGTQVTVSS
notes: glycine–serine (G5S) linker; murine interleukin-2; about 32 kDa; source: HEK293 cells, transfected, purified (TALON; some by SEC)
As to B4, the Kd in assay [2] came out at 2 nM.

B5: LMJ1.3J (VHH)
VHH: QVQLVGTGGGLVQAGGSLRLSCAASGSTFSHSAGGWYRQAPEKQRELVAGISSAGNINYADSVKDRFTISRDNASNTMYLQMNNLKPEDTAVYVCNIRGSYGNTYYSRWGQGTQVTVSS
Turning to B5, the binding result in assay [1] is recorded as “binds”.

B6: LMJ1.2C nanobody, biotin-tagged (VHH)
VHH: QVQLVETGGGLVQAGGSLRLSCAASGSTFSHSAGGWYRQAPEKQRELVAGIRSDGNINYADSVKDRFTISRDNASNTMYLQMNNLKPEDTAVYVCNIRGSYGNTYYSRWGQGTQVTVSS
notes: as for B3
Consider B6, for which, in assay [2], the equilibrium dissociation constant (Kd) is 0.3 nM.

B7: LMJ2.5J (VHH)
VHH: QVQLVETRGGLVQAGGSLRLSCAVSGSTFSHSAGGWYRQAPEKQRELVAGIGSAGNINYADSVKDRFTISRDNASNTMYLQMNNLKPEDTAVYVCNIRGSYGNTYYSRWGQGTQVTVSS
As to B7, the binding result in assay [1] is on record as “binds”.

B8: LMJ2.6A (VHH)
VHH: RVQLVETGGGLVQAGGSLRLSCAVSGRTFSHSAGGWYRQAPEKQRELVAGIRSDGNINYADSVKDRFTISRDNASNTMYLQMNNLKPGDTAVYVCNIRGSYGNTYYSRWGQGTQVTVSS
On to B8, for which the binding result in assay [1] is given as “binds”.

B9: NJT6-IL2 (NJT6 nanobody fused to murine IL-2) (VHH)
VHH: QVQLVETGGDLVQPGGSLRLSCAASGLTLDYYAIGWVRQAPGKEREGVSCITPQDGNTYYDDSVMGRFTILRDNAKNMVYLQMNNLKPEDTAVYFCAAAGALTLDPSEYEYWGQGTQVTVSS
notes: glycine–serine (G5S) linker; murine interleukin-2; size-matched control; also called untargeted IL-2; source: HEK293 cells, transfected, purified (TALON; some by SEC)
As to B9, in assay [2], the binding result was “no binding (tested: 100 nM)”.

Source of the values: publication PMC9802395, “Intratumoral nanobody–IL-2 fusions that bind the tumor extracellular matrix suppress solid tumor growth in mice” (PNAS Nexus, 2022).
